Experimental data published in US20240410900A1.

Tests used:
[1] = biological target: non-targeted IgG-IL2 (interleukin-2 fused to the C-terminus of a heavy chain of a germline antibody, which is not binding to a target); test: bridging ELISA, IgG-IL2-Bi and -Dig, binder 2.0 ng/mL assay / 39 ng/mL matrix
[2] = biological target: non-targeted IgG-IL2 (interleukin-2 fused to the C-terminus of a heavy chain of a germline antibody, which is not binding to a target); test: bridging ELISA, IgG-IL2-Bi and -Dig, binder 7.8 ng/mL assay / 156 ng/mL matrix
[3] = biological target: drug antibody (capture and tracer of the bridging immunoassay of FIGS. 2, 7 and 8; not named); test: bridging immunoassay, drug antibody as capture and tracer, binder at 80 ng/ml
[4] = biological target: non-targeted IgG-IL2 (interleukin-2 fused to the C-terminus of a heavy chain of a germline antibody, which is not binding to a target); test: bridging ELISA, IgG-IL2-Bi and -Dig, binder 250 ng/mL assay / 5000 ng/mL matrix
[5] = biological target: drug antibody (capture and tracer of the bridging immunoassay of FIGS. 2, 7 and 8; not named); test: bridging immunoassay, drug antibody as capture and tracer, binder at 1000 ng/ml
[6] = biological target: TCB (T-cell bispecific format) drug antibody; test: bridging ELISA, drug-Bi and drug-Dig, human pooled serum, binder 0.00 ng/mL (blank)
[7] = biological target: non-targeted IgG-IL2 (interleukin-2 fused to the C-terminus of a heavy chain of a germline antibody, which is not binding to a target); test: as above
[8] = biological target: targeted IgG-IL2 (interleukin-2 fused to the C-terminus of a heavy chain of an antibody specifically binding to a therapeutic target); test: as above
[9] = biological target: TCB (T-cell bispecific format) drug antibody; test: bridging ELISA, drug-Bi and drug-Dig, human pooled serum, binder 3.9 ng/mL assay / 78 ng/mL matrix
[10] = biological target: non-targeted IgG-IL2 (interleukin-2 fused to the C-terminus of a heavy chain of a germline antibody, which is not binding to a target); test: as above
[11] = biological target: targeted IgG-IL2 (interleukin-2 fused to the C-terminus of a heavy chain of an antibody specifically binding to a therapeutic target); test: as above
[12] = biological target: TCB (T-cell bispecific format) drug antibody; test: bridging ELISA, drug-Bi and drug-Dig, human pooled serum, binder 7.8 ng/mL assay / 156 ng/mL matrix
[13] = biological target: non-targeted IgG-IL2 (interleukin-2 fused to the C-terminus of a heavy chain of a germline antibody, which is not binding to a target); test: as above
[14] = biological target: targeted IgG-IL2 (interleukin-2 fused to the C-terminus of a heavy chain of an antibody specifically binding to a therapeutic target); test: as above
[15] = biological target: TCB (T-cell bispecific format) drug antibody; test: bridging ELISA, drug-Bi and drug-Dig, human pooled serum, binder 0.03 ng/mL assay / 0.6 ng/mL matrix
[16] = biological target: non-targeted IgG-IL2 (interleukin-2 fused to the C-terminus of a heavy chain of a germline antibody, which is not binding to a target); test: as above
[17] = biological target: targeted IgG-IL2 (interleukin-2 fused to the C-terminus of a heavy chain of an antibody specifically binding to a therapeutic target); test: as above
[18] = biological target: TCB (T-cell bispecific format) drug antibody; test: bridging ELISA, drug-Bi and drug-Dig, human pooled serum, binder 0.06 ng/mL assay / 1.2 ng/mL matrix
[19] = biological target: non-targeted IgG-IL2 (interleukin-2 fused to the C-terminus of a heavy chain of a germline antibody, which is not binding to a target); test: as above
[20] = biological target: targeted IgG-IL2 (interleukin-2 fused to the C-terminus of a heavy chain of an antibody specifically binding to a therapeutic target); test: as above
[21] = biological target: TCB (T-cell bispecific format) drug antibody; test: bridging ELISA, drug-Bi and drug-Dig, human pooled serum, binder 0.12 ng/mL assay / 2.4 ng/mL matrix
[22] = biological target: non-targeted IgG-IL2 (interleukin-2 fused to the C-terminus of a heavy chain of a germline antibody, which is not binding to a target); test: as above
[23] = biological target: targeted IgG-IL2 (interleukin-2 fused to the C-terminus of a heavy chain of an antibody specifically binding to a therapeutic target); test: as above
[24] = biological target: TCB (T-cell bispecific format) drug antibody; test: bridging ELISA, drug-Bi and drug-Dig, human pooled serum, binder 16 ng/mL assay / 312.5 ng/mL matrix
[25] = biological target: non-targeted IgG-IL2 (interleukin-2 fused to the C-terminus of a heavy chain of a germline antibody, which is not binding to a target); test: as above
[26] = biological target: targeted IgG-IL2 (interleukin-2 fused to the C-terminus of a heavy chain of an antibody specifically binding to a therapeutic target); test: as above

B1: multivalent anti-PG antibody derived from clone 1.7.24 (mixed Pool 2, 3, 4) (antibody, V domains shown)
VH: EVKLLESGGGLVQPGGSLKLSCAASGFDFSRYWMNWVRQAPGKGLEWIGEITPDSSTINYTPSLKDKFIISRDNAKNTLYLQMIKVRSEDTALYYCVRPYDYGAWFASWGQGTLVTVSA
VL: QAVVTQESALTTSPGETVTLTCRSSTGAVTTSNYANWVQEKPDHLFTGLIGGTNKRAPGVPARFSGSLIGDKAALTITGAQTEDEAIYFCALWYSNHWVFGGGTKLTVL
modifications: lysine amines derivatised with SATP or MHS and cross-linked (sites not given)
For B1, the signal [AU] [1] was 0.165 AU, the signal [AU] [2] was 0.539 AU and the signal-to-noise ratio (S/N) [3] was 4.5. It also gave a signal [AU] [4] of 3.04 AU, a signal-to-noise ratio (S/N) [5] of 83.6 and a signal [AU] [6] of 0.0425 AU. For the same binder, the signal [AU] [7] was 0.041 AU, the signal [AU] [8] was 0.0395 AU and the signal [AU] [9] was 0.35 AU. The signal [AU] [10] was 0.088 AU, the signal [AU] [11] was 0.261 AU and the signal [AU] [12] was 0.654 AU. For the same binder, the signal [AU] [13] was 0.137 AU, the signal [AU] [14] was 0.475 AU and the signal [AU] [15] was 0.0455 AU. It also gave a signal [AU] [16] of 0.0425 AU, a signal [AU] [17] of 0.04 AU and a signal [AU] [18] of 0.049 AU. The signal [AU] [19] was 0.042 AU, the signal [AU] [20] was 0.042 AU and the signal [AU] [21] was 0.0555 AU. It also gave a signal [AU] [22] of 0.0395 AU, a signal [AU] [23] of 0.044 AU and a signal [AU] [24] of 1.19 AU. The signal [AU] [25] was 0.23 AU and the signal [AU] [26] was 0.894 AU.
